Test results: PMC6322584

Molecular target: VvWRKY8-mVenus (Vitis vinifera)
Assay: FRET or BRET; FRET with acceptor photobleaching; VvMYB14-mTRQ2 (donor) and VvWRKY8-mVenus (acceptor) from one pFRETtv-2in1-NN vector in agro-infiltrated tobacco leaves, 3 d after infiltration; bleaching with the 488-nm laser at 100% intensity, 15 frames

In the case of VvMYB14-mTRQ2 (natural protein), the FRET efficiency is reported as 38.5%.
